According to the Human Domainome abundance scans (Beltran et al. 2025):
± gives the uncertainty stated by the source.

B1: Neutrophil cytosol factor 2, residues 456 to 514; numbered along this chain, P19878 (parent)
chain: LKKGSQVEALFSYEATQPEDLEFQEGDIILVLSKVNEEWLEGECKGKVGIFPKVFVEDC

Variants of: B1
Test: abundance fitness (aPCA) (normalised: wild type 0, dead -1); higher = more abundant; growth selection in yeast, the domain comes from the species named
Conditions: Homo sapiens

Abundance fitness of substitutions, site by site:
E38: S -0.701 ± 0.13 | W -0.396 ± 0.24 | A -0.329 ± 0.13 | K -0.649 ± 0.31 | D 0.028 ± 0.12 | G -0.207 ± 0.098 | V -0.479 ± 0.11 | Y -0.266 ± 0.11 | C -0.702 ± 0.15 | P -0.496 ± 0.19 | I -0.097 ± 0.12 | N -0.131 ± 0.12 | R -0.941 ± 0.21 | H -0.362 ± 0.17
E37: N 0.241 ± 0.13 | R -0.22 ± 0.11 | M -0.506 ± 0.22 | T -0.171 ± 0.14 | A -0.42 ± 0.14 | Y -0.345 ± 0.34 | P -0.903 ± 0.27 | H -0.328 ± 0.14 | D 0.069 ± 0.12 | F -0.697 ± 0.2 | I -0.445 ± 0.17 | V 0.085 ± 0.099 | S -0.527 ± 0.12 | G -0.277 ± 0.12 | L -0.645 ± 0.15 | C -0.109 ± 0.15 | W -0.279 ± 0.35
N36: F -0.446 ± 0.11 | H -0.276 ± 0.13 | V -0.686 ± 0.18 | W -0.712 ± 0.27 | R -0.963 ± 0.19 | L -0.968 ± 0.2 | P -1.03 ± 0.29 | G -0.103 ± 0.094 | A -0.063 ± 0.14 | Y -0.754 ± 0.2 | D -0.477 ± 0.17 | M -0.43 ± 0.28 | T -0.867 ± 0.22 | S -0.586 ± 0.11 | K 0.093 ± 0.23 | C -0.761 ± 0.15
E43: L -0.487 ± 0.15 | A -0.035 ± 0.17 | G -0.152 ± 0.11 | F -0.324 ± 0.1 | T -0.163 ± 0.11 | I -0.567 ± 0.13 | K -0.235 ± 0.24 | H -0.314 ± 0.16 | C -0.685 ± 0.17 | S 0.025 ± 0.076 | W -0.435 ± 0.32 | V -0.654 ± 0.15 | M -0.009 ± 0.17 | N -0.758 ± 0.22 | Q -0.078 ± 0.23 | P -0.818 ± 0.26 | R -0.521 ± 0.15
G42: P -0.375 ± 0.18 | N -0.484 ± 0.15 | I -0.473 ± 0.15 | M -0.954 ± 0.31 | Q -0.637 ± 0.28 | K -0.768 ± 0.35 | C -0.782 ± 0.15 | L -0.569 ± 0.14 | F -0.509 ± 0.12 | T -0.876 ± 0.24 | V -0.748 ± 0.16 | R -0.952 ± 0.19 | E -0.237 ± 0.21 | D -0.803 ± 0.17 | A -0.146 ± 0.13 | Y -0.466 ± 0.16 | W -0.322 ± 0.17
V35: L -0.096 ± 0.089 | S -0.459 ± 0.1 | N -0.517 ± 0.15 | K -0.045 ± 0.23 | H -0.806 ± 0.23 | Q -0.302 ± 0.32 | Y -0.69 ± 0.17 | T -0.808 ± 0.2 | R -0.235 ± 0.096 | M -0.081 ± 0.24 | W -0.019 ± 0.16
E41: V -0.02 ± 0.091 | R 0.131 ± 0.083 | C 0.14 ± 0.095 | S -0.28 ± 0.1 | F 0.248 ± 0.083 | G -0.157 ± 0.1 | Y 0.47 ± 0.079 | H -0.682 ± 0.27 | L 0.275 ± 0.083 | W -0.267 ± 0.23 | Q 0.238 ± 0.3 | A -0.394 ± 0.14 | N -0.635 ± 0.14 | T -0.527 ± 0.17 | K 0.367 ± 0.1 | I 0.175 ± 0.087 | M 0.275 ± 0.13
W39: G -0.414 ± 0.1 | S -0.666 ± 0.13 | E -0.269 ± 0.26 | Y -0.321 ± 0.1 | D -0.598 ± 0.17 | P -0.598 ± 0.2 | A -0.643 ± 0.17 | F -0.49 ± 0.11 | M 0.036 ± 0.26 | T -0.735 ± 0.19 | L -0.8 ± 0.14 | I -0.109 ± 0.091 | N -0.196 ± 0.11 | C -0.379 ± 0.099 | R -0.893 ± 0.16 | H -1.03 ± 0.24 | Q -0.864 ± 0.45
K45: F -0.669 ± 0.15 | C -0.191 ± 0.14 | A -0.765 ± 0.19 | D 0.065 ± 0.12 | E -0.905 ± 0.49 | G -0.61 ± 0.16
L40: R -0.217 ± 0.12 | Y 0.528 ± 0.077 | A -0.731 ± 0.18 | K -0.918 ± 0.33 | F -0.548 ± 0.14 | H -0.764 ± 0.25 | S -0.729 ± 0.15 | D -0.544 ± 0.17 | Q -0.58 ± 0.4 | M -0.042 ± 0.19 | V -0.451 ± 0.12 | I -0.183 ± 0.12 | P -0.02 ± 0.23 | N -0.945 ± 0.21 | W -0.277 ± 0.2 | T -0.749 ± 0.21 | E -0.742 ± 0.47 | C -0.614 ± 0.17
C44: V -0.455 ± 0.094 | R -0.336 ± 0.12 | N -0.924 ± 0.2 | T -0.467 ± 0.17 | P -0.583 ± 0.2 | D -0.557 ± 0.15 | M 0.102 ± 0.21 | I -0.705 ± 0.14 | E -0.865 ± 0.41 | L -0.35 ± 0.1 | G -0.383 ± 0.094 | Y -0.478 ± 0.11 | W -0.182 ± 0.17 | K -0.574 ± 0.4 | A -0.241 ± 0.13 | H -0.806 ± 0.19 | F -0.741 ± 0.13
